Tests used:
A. terreus = experiment: Broth microdilution (NCCLS M38-A) checkerboard assay, A. terreus; format: cell-based; settings: for FIC: MIC in combination divided by MIC alone; for MIC-0 of each agent, Alone: Table 1, no growth endpoint; for MIC-0 of each agent, Combination: amphotericin B and Mycograb in combination
Description: (§1) Stock solutions of amphotericin B (AMB, Sigma), caspofungin (Caspo), voriconazole (VOR) and itraconazole (ITZ) were prepared according to the National Committee for Clinical Laboratory Standards (M38-A) in RPMI 1640 with glutamine broth medium, buffered to pH 7.0 with […] morpholinopropanesulphonic acid (MOPS). AMB stock solutions were prepared as a 100× series in 100% dimethyl sulfoxide (DMSO) and diluted in medium to a concentration range of 0.03125 to 16 μg/ml. Caspofungin, voriconazole and itraconazole were tested at a concentration range of 0.03125 to 1024 μg/ml, and Mycograb® (NeuTec Pharma plc) at a concentration range of 0.25 to 1024 μg/ml.
(§2) Clinical isolates of Aspergillus fumigatus (2), A. flavus (1), A. terreus (1) and A. niger (1) were obtained from the Department on Microbiology, Manchester Royal Infirmary, Manchester, UK.
(§3) An inoculum suspension was prepared in buffered RPMI with glutamine medium by probing colonies from a 7 day old Sabouraud plate. The suspension was adjusted to 0.09-0.11 (80% to 82% transmittance) for Aspergillus species, 0.15-0.17 (68% to 70% transmittance). The inoculum was diluted a further 1:2 when added to the antifungal agents in the assay (final inoculum (0.4×10^4 to 0.5×10^4). For AMB and Mycograb®, either alone or in combination, the endpoint was determined as the concentration to produce no growth (MIC-0). Microtitre plates were incubated at 37° C. without agitation for 48 hours for Aspergillus species. For caspofungin, voriconazole and itraconazole, either alone or in combination with Mycograb® antibody, the MIC endpoint was determined as the concentration resulting in a prominent decrease in turbidity (≧50% growth inhibition, MIC-2) compared to the growth control (Keele et al. 2001; Espinel-Ingroff 2003). The final inhibitory concentration (FIC) was calculated for each drug by dividing the MIC in the presence of the second drug by the MIC in its absence. For each combination, two fractions were produced which were summated to produce the fractional final inhibitory concentration. Synergy was defined by value of ≦0.5, indifference was defined by a value of >0.5 to <4.0, and antagonism was defined by a value of ≧4.0 (Matthews et al., 2003).

A. flavus = experiment: Broth microdilution (NCCLS M38-A) checkerboard assay, A. flavus; format: cell-based; settings: for MIC-0 of each agent, Alone: Table 1, no growth endpoint; for MIC-0 of each agent, Combination: amphotericin B and Mycograb in combination; for FIC: MIC in combination divided by MIC alone
Description: as §1, §2, §3

A. niger = experiment: Broth microdilution (NCCLS M38-A) checkerboard assay, A. niger; format: cell-based; settings: for MIC-0 of each agent, Alone: Table 1, no growth endpoint; for MIC-0 of each agent, Combination: amphotericin B and Mycograb in combination; for FIC: MIC in combination divided by MIC alone
Description: as §1, §2, §3

Aspergillus species = experiment: Antifungal activity with Mycograb antibody, summary over the Aspergillus species examined; format: cell-based; settings: summary of Tables 1-4; for Antifungal activity / surprising effect when used in combination with Mycograb antibody: agent combined with Mycograb antibody
Description: as §3

A. fumigatus CI2 = experiment: Broth microdilution (NCCLS M38-A) checkerboard assay, A. fumigatus CI2; format: cell-based, Aspergillus fumigatus; settings: for MIC-0 of each agent, Alone: Table 1, no growth endpoint; for MIC-0 of each agent, Combination: amphotericin B and Mycograb in combination; for FIC: MIC in combination divided by MIC alone
Description: as §1, §2, §3

A. fumigatus = experiment: Broth microdilution (NCCLS M38-A) checkerboard assay, A. fumigatus; format: cell-based, Aspergillus fumigatus; settings: for MIC-0 of each agent, Alone: Table 1, no growth endpoint; for MIC-0 of each agent, Combination: amphotericin B and Mycograb in combination; for FIC: MIC in combination divided by MIC alone
Description: as §1, §2, §3

Candida strains = settings: WO 01/76627, cited from earlier work
[1] = voriconazole and Mycograb combination
[2] = voriconazole and Mycograb in combination
[3] = Aspergillus fumigatus, agent alone, Table 4, ≧50% growth inhibition endpoint, read-out: MIC-2 of each agent, Alone
[4] = amphotericin B and Mycograb combination
[5] = agent alone, Table 2, ≧50% growth inhibition endpoint
[6] = agent alone, Table 3, ≧50% growth inhibition endpoint
[7] = agent alone, Table 4, ≧50% growth inhibition endpoint
[8] = caspofungin and Mycograb in combination
[9] = itraconazole and Mycograb in combination

C[C@@H](c1ncncc1F)[C@](O)(Cn1cncn1)c1ccc(F)cc1F [VOR, voriconazole]
MIC (A. terreus; Aspergillus terreus, agent alone, Table 4, ≧50% growth inhibition endpoint, read-out: MIC-2 of each agent, Alone): 0.25 µg/mL
FICI (A. terreus; [1]): 0.5
Outcome (A. terreus; [1]): Synergy (Synergy was defined by value of ≦0.5)
MIC-2 of each agent, Combination (A. terreus; [2]): 0.125 µg/mL
FIC (A. terreus; voriconazole and Mycograb): 0.5 µg/mL
MIC (A. flavus; Aspergillus flavus, agent alone, Table 4, ≧50% growth inhibition endpoint, read-out: MIC-2 of each agent, Alone): 0.25 µg/mL
FICI (A. flavus; [1]): 0.25
Outcome (A. flavus; [1]): Synergy (Synergy was defined by value of ≦0.5)
MIC-2 of each agent, Combination (A. flavus; [2]): 0.0625 µg/mL
MIC (A. niger; Aspergillus niger, agent alone, Table 4, ≧50% growth inhibition endpoint, read-out: MIC-2 of each agent, Alone): 0.125 µg/mL
FICI (A. niger; [1]): 2
Outcome (A. niger; [1]): Indifferent (indifference was defined by a value of >0.5 to <4.0)
MIC-2 of each agent, Combination (A. niger; [2]): 0.125 µg/mL
Antifungal activity / surprising effect when used in combination with Mycograb antibody (Aspergillus species): surprisingly high level of antifungal activity against all the species examined except for A. niger
MIC (A. fumigatus CI2; [3]): 0.25 µg/mL
FICI (A. fumigatus CI2; [1]): 0.5
Outcome (A. fumigatus CI2; [1]): Synergy (Synergy was defined by value of ≦0.5)
MIC-2 of each agent, Combination (A. fumigatus CI2; [2]): 0.125 µg/mL
MIC (A. fumigatus; [3]): 0.0625 µg/mL
FICI (A. fumigatus; [1]): 0.5
Outcome (A. fumigatus; [1]): Synergy (Synergy was defined by value of ≦0.5)
MIC-2 of each agent, Combination (A. fumigatus; [2]): 0.0312 µg/mL

C[C@@H]1[C@H](O)[C@@H](C)/C=C/C=C/C=C/C=C/C=C/C=C/C=C/[C@H](O[C@@H]2O[C@H](C)[C@@H](O)[C@H](N)[C@@H]2O)C[C@@H]2O[C@](O)(C[C@@H](O)C[C@@H](O)[C@H](O)CC[C@@H](O)C[C@@H](O)CC(=O)O[C@H]1C)C[C@H](O)[C@H]2C(=O)O [AMB, amphotericin B]
MIC-0 of each agent, Alone (A. terreus; agent alone): 4 µg/mL
FICI (A. terreus; [4]): 2
Outcome (A. terreus; [4]): Indifferent (indifference was defined by a value of >0.5 to <4.0)
MIC-0 of each agent, Combination (A. terreus): 4 µg/mL
FIC (A. terreus; amphotericin B and Mycograb): 1 µg/mL
MIC-0 of each agent, Alone (A. flavus; agent alone): 4 µg/mL
FICI (A. flavus; [4]): 2
Outcome (A. flavus; [4]): Indifferent (indifference was defined by a value of >0.5 to <4.0)
MIC-0 of each agent, Combination (A. flavus): 4 µg/mL
Efficacy of antifungal agent in the presence of the antibody (Candida strains; wide variety of fungal strains (e.g. Candida species)): significantly enhanced
MIC-0 of each agent, Alone (A. niger; agent alone): 2 µg/mL
FICI (A. niger; [4]): 0.5
Outcome (A. niger; [4]): Indifferent (indifference was defined by a value of >0.5 to <4.0)
MIC-0 of each agent, Combination (A. niger): 1 µg/mL
Antifungal activity / surprising effect when used in combination with Mycograb antibody (Aspergillus species): not observed
MIC-0 of each agent, Alone (A. fumigatus CI2; agent alone): 2 µg/mL
FICI (A. fumigatus CI2; [4]): 0.531
Outcome (A. fumigatus CI2; [4]): Indifferent (indifference was defined by a value of >0.5 to <4.0)
MIC-0 of each agent, Combination (A. fumigatus CI2): 1 µg/mL
MIC-0 of each agent, Alone (A. fumigatus; agent alone): 2 µg/mL
FICI (A. fumigatus; [4]): 0.5
Outcome (A. fumigatus; [4]): Indifferent (indifference was defined by a value of >0.5 to <4.0)
MIC-0 of each agent, Combination (A. fumigatus): 1 µg/mL

OC(Cn1cncn1)(Cn1cncn1)c1ccc(F)cc1F [fluconazole]
Synergy in combination with Mycograb antibody against Candida strains (Candida strains; prior finding): little synergy
Antifungal activity / surprising effect when used in combination with Mycograb antibody (Aspergillus species): not observed

B1: Mycograb: antibody specific for a fungal hsp90 stress protein epitope (SEQ ID NO: 1), comprising the sequence of SEQ ID NO: 3, expressed in E. coli (protein)
scFv: HMAEVQLVESGAEVKKPGESLRISCKGSGCIISSYWISWVRQMPGKGLEWMGKIDPGDSYINYSPSFQGHVTISADKSINTAYLQWNSLKASDTAMYYCARGGRDFGDSFDYWGQGTLVTVSSGGGGSGGGGSGGGGSDVVMTQSPSFLSAFVGDRITITCRASSGISRYLAWYQQAPGKAPKLLIYAASTLQTGVPSRFSGSGSGTEFTLTINSLQPEDFATYYCQHLNSYPLTFGGGTKVDIKRAA
modifications: Synthetically generated peptide
MIC-0 of each agent, Alone (A. terreus; agent alone): 512 µg/mL
MIC-2 of each agent, Alone (A. terreus; [5]): 1024 µg/mL
MIC-2 of each agent, Alone (A. terreus; [6]): 1024 µg/mL
MIC-2 of each agent, Alone (A. terreus; [7]): 1024 µg/mL
MIC-0 of each agent, Combination (A. terreus): 512 µg/mL
FIC (A. terreus; amphotericin B and Mycograb): 1 µg/mL
MIC-2 of each agent, Combination (A. terreus; [8]): 32 µg/mL
FIC (A. terreus; caspofungin and Mycograb): 0.031 µg/mL
MIC-2 of each agent, Combination (A. terreus; [9]): 32 µg/mL
FIC (A. terreus; itraconazole and Mycograb): 0.031 µg/mL
MIC-2 of each agent, Combination (A. terreus; [2]): 0.25 µg/mL
FIC (A. terreus; voriconazole and Mycograb): 0.0002 µg/mL
MIC-0 of each agent, Alone (A. flavus; agent alone): 512 µg/mL
MIC-2 of each agent, Alone (A. flavus; [5]): 512 µg/mL
MIC-2 of each agent, Alone (A. flavus; [6]): 512 µg/mL
MIC-2 of each agent, Alone (A. flavus; [7]): 512 µg/mL
MIC-0 of each agent, Combination (A. flavus): 512 µg/mL
FIC (A. flavus; amphotericin B and Mycograb): 1
MIC-2 of each agent, Combination (A. flavus; [8]): 0.0625 µg/mL
FIC (A. flavus; caspofungin and Mycograb): 0.0001
MIC-2 of each agent, Combination (A. flavus; [9]): 0.25 µg/mL
FIC (A. flavus; itraconazole and Mycograb): 0.0005
MIC-2 of each agent, Combination (A. flavus; [2]): 0.25 µg/mL
FIC (A. flavus; voriconazole and Mycograb): 0.0005
MIC-0 of each agent, Alone (A. niger; agent alone): 512 µg/mL
MIC-2 of each agent, Alone (A. niger; [5]): 256 µg/mL
MIC-2 of each agent, Alone (A. niger; [6]): 16 µg/mL
MIC-2 of each agent, Alone (A. niger; [7]): 16 µg/mL
MIC-0 of each agent, Combination (A. niger): 4 µg/mL
FIC (A. niger; amphotericin B and Mycograb): 0.01
MIC-2 of each agent, Combination (A. niger; [8]): 0.0625 µg/mL
FIC (A. niger; caspofungin and Mycograb): 0.0001
MIC-2 of each agent, Combination (A. niger; [9]): 4 µg/mL
FIC (A. niger; itraconazole and Mycograb): 0.25
MIC-2 of each agent, Combination (A. niger; [2]): 16 µg/mL
FIC (A. niger; voriconazole and Mycograb): 1
Growth inhibition by antibody on its own (Aspergillus species; Mycograb antibody alone): able to inhibit growth of certain Aspergillus species
MIC-0 of each agent, Alone (A. fumigatus CI2; agent alone): 512 µg/mL
MIC-2 of each agent, Alone (A. fumigatus CI2; [5]): 1024 µg/mL
MIC-2 of each agent, Alone (A. fumigatus CI2; [6]): 1024 µg/mL
MIC-2 of each agent, Alone (A. fumigatus CI2; [7]): 1024 µg/mL
MIC-0 of each agent, Combination (A. fumigatus CI2): 16 µg/mL
FIC (A. fumigatus CI2; amphotericin B and Mycograb): 0.031
MIC-2 of each agent, Combination (A. fumigatus CI2; [8]): 16 µg/mL
FIC (A. fumigatus CI2; caspofungin and Mycograb): 0.062
MIC-2 of each agent, Combination (A. fumigatus CI2; [9]): 8 µg/mL
FIC (A. fumigatus CI2; itraconazole and Mycograb): 0.008
MIC-2 of each agent, Combination (A. fumigatus CI2; [2]): 0.25 µg/mL
FIC (A. fumigatus CI2; voriconazole and Mycograb): 0.0002
MIC-0 of each agent, Alone (A. fumigatus; agent alone): 512 µg/mL
MIC-2 of each agent, Alone (A. fumigatus; [5]): 1024 µg/mL
MIC-2 of each agent, Alone (A. fumigatus; [6]): 1024 µg/mL
MIC-2 of each agent, Alone (A. fumigatus; [7]): 1024 µg/mL
MIC-0 of each agent, Combination (A. fumigatus): 4 µg/mL
FIC (A. fumigatus; amphotericin B and Mycograb): 0.01
MIC-2 of each agent, Combination (A. fumigatus; [8]): 32 µg/mL
FIC (A. fumigatus; caspofungin and Mycograb): 0.062
MIC-2 of each agent, Combination (A. fumigatus; [9]): 16 µg/mL
FIC (A. fumigatus; itraconazole and Mycograb): 0.016
MIC-2 of each agent, Combination (A. fumigatus; [2]): 0.25 µg/mL
FIC (A. fumigatus; voriconazole and Mycograb): 0.0002

— patent US20080095778A1, “Treatment Of Fungal Infections” (priority 2004, published 2008)
